Experimental data reported in paper PMC2657102, “Molecular cloning and characterization of a novel pyrethroid-hydrolyzing esterase originating from the Metagenome” (Microbial Cell Factories, 2008).
“And” between values parts separate entries of the source, which are not always exact repeats. Equal entries are not always repeated.

Test system: CC1(C)C(C=C(Cl)Cl)C1C(=O)OCc1cccc(Oc2ccccc2)c1
Test: purified protein
Settings: analogous to ρ-nitrophenyl ester assay (50 mM sodium phosphate pH 7.0, 30°C)

Substance: Pye3 (pyrethroid-hydrolyzing esterase) (uncultured prokaryote)
- Km: 0.10 µM and 0.18 µM
